Where “and” joins values, the source holds several entries; their conditions need not be identical. Equal entries are not always repeated.
Experiments:
[1] = biological target: p300 (human (endogenous in HEp-2)) (UniProt Q09472); test: co-IP
[2] = biological target: CREB-binding protein (CBP) (human (endogenous in HEp-2)) (UniProt Q92793); test: co-IP
Chain of UniProt Q92793 (Q92793 whole entry): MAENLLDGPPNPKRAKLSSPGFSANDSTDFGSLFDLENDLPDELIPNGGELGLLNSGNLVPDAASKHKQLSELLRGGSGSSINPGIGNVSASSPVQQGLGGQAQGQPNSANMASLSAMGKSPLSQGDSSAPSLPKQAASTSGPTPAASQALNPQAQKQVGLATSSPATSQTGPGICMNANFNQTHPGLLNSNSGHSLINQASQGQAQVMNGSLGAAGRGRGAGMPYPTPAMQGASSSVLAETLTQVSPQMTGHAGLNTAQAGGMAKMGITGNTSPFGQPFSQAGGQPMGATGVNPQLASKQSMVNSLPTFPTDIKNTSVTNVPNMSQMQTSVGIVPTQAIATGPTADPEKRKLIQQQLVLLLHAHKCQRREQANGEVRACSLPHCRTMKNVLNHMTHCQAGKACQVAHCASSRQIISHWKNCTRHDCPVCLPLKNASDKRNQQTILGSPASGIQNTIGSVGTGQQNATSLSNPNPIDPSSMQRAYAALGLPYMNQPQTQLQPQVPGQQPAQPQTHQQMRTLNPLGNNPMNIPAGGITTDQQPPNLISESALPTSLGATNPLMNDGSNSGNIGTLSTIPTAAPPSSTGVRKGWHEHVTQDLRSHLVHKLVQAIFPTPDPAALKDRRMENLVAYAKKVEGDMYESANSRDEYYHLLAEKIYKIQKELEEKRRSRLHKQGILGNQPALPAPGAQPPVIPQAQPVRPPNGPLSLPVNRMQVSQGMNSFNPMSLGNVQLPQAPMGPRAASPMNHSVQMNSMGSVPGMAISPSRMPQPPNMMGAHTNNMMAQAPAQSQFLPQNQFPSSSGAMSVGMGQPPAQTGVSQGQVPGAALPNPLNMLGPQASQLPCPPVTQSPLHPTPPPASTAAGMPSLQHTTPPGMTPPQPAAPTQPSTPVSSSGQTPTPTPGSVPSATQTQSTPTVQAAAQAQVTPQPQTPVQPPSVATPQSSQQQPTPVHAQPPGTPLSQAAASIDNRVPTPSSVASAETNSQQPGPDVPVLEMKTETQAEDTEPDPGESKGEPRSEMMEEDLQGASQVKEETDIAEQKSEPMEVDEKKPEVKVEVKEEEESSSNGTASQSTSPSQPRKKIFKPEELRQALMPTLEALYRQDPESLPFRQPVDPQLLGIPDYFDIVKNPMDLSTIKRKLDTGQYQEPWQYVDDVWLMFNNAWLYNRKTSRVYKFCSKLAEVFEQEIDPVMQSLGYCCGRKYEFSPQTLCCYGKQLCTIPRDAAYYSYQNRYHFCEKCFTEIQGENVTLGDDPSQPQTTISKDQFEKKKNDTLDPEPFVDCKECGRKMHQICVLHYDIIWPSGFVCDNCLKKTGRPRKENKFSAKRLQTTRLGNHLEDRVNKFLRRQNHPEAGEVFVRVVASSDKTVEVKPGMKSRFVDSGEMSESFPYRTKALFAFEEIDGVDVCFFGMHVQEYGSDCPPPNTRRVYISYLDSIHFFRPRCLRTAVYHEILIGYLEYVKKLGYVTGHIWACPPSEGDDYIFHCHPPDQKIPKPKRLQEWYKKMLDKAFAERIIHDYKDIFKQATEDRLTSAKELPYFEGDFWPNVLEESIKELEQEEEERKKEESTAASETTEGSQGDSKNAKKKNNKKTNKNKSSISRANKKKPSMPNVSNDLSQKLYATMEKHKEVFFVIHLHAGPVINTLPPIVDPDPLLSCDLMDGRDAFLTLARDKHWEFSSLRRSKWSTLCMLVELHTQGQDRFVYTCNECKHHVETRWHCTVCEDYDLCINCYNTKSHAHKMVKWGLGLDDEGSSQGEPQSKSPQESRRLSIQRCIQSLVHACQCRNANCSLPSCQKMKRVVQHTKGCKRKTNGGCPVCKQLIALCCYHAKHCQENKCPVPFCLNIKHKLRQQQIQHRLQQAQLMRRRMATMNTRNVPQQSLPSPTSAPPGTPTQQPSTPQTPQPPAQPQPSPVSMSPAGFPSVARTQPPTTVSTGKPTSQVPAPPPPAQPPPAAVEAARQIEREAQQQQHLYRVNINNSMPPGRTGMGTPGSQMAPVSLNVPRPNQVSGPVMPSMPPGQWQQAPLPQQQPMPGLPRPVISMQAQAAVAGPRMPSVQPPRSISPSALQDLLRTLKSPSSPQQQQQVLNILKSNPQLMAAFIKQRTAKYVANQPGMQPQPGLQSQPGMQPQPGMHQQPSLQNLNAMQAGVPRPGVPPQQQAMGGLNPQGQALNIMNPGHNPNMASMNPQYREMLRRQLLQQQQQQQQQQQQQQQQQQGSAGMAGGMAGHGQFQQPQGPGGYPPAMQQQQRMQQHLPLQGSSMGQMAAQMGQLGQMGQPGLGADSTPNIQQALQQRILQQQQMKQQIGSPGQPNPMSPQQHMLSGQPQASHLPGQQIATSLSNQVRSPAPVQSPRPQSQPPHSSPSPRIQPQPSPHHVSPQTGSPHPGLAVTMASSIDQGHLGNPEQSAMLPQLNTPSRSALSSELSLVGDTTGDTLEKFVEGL

Chain of UniProt Q09472 (Q09472 whole entry): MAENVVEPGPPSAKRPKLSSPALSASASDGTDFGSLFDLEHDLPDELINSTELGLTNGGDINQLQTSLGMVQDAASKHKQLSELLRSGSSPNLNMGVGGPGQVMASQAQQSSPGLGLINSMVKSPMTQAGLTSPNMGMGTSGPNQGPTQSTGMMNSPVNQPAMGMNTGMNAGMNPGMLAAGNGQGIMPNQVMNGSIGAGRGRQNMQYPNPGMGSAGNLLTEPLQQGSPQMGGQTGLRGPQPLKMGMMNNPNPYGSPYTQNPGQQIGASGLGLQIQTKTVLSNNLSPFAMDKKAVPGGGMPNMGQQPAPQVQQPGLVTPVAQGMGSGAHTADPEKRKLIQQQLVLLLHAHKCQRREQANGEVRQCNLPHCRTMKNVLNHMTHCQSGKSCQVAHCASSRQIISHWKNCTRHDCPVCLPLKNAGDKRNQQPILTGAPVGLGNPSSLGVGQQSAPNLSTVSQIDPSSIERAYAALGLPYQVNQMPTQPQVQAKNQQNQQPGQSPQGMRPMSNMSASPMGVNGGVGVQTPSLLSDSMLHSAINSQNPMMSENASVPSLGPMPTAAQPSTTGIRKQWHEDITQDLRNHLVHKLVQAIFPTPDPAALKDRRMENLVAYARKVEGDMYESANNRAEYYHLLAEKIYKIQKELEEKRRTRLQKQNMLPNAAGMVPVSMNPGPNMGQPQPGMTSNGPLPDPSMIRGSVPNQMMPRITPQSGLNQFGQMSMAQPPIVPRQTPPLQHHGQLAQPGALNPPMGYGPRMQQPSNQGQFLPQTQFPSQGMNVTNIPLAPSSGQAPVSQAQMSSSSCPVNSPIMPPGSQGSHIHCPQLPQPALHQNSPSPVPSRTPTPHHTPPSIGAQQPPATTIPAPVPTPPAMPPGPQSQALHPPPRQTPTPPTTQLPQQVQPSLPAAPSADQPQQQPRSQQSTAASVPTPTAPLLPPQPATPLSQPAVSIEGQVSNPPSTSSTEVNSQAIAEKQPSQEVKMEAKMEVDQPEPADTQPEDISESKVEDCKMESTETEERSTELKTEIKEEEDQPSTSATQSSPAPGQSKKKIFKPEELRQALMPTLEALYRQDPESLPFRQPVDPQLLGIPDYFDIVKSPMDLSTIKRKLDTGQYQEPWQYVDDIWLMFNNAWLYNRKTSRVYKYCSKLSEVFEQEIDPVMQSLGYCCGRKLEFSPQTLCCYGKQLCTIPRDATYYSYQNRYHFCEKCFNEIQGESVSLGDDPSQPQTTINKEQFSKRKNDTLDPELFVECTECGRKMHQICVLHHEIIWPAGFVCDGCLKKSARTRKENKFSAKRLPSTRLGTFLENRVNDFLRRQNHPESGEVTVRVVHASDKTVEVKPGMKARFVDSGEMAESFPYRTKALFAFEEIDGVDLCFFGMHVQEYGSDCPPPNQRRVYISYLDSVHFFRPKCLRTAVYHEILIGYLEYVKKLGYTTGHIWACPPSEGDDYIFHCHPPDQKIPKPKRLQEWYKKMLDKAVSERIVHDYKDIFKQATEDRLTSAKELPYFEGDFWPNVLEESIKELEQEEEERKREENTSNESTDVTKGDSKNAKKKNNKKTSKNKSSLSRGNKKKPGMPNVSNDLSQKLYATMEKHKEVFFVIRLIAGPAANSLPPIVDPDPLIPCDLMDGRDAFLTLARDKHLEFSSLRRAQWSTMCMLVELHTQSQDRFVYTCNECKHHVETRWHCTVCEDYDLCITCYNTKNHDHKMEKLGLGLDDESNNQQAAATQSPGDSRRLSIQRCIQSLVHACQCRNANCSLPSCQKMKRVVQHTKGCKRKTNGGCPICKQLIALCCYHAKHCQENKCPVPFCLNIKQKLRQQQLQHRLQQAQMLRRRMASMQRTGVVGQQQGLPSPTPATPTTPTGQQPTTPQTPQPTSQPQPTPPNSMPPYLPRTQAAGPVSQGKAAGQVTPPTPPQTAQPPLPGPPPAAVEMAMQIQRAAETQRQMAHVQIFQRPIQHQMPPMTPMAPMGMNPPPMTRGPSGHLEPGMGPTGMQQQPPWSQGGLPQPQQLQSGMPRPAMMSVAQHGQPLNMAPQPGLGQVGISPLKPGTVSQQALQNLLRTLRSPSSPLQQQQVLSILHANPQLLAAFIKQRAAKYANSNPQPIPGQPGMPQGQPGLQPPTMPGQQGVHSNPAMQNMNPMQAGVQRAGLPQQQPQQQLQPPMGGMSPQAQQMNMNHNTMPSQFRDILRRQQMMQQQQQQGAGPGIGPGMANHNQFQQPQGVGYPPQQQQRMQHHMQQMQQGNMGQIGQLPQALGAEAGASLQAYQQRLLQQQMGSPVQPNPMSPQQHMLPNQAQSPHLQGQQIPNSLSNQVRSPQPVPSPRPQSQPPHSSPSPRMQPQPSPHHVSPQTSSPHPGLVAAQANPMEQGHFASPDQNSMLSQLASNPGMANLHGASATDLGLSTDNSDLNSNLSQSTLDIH

## hypophosphorylated RNA polymerase II (pol IIa), largest subunit (from UniProt P24928 1-1970) (natural protein)
[1]
  percent of pol IIa recovered in the immunoprecipitate: 10% and 20%
[2]
  percent of pol IIa recovered in the immunoprecipitate: 10% and 20%

Source: article PMC2185550
